Data from IntAct's records for PubMed 25416956.

B1: Forkhead box protein P3 (Homo sapiens), Q9BZS1 (parent)
chain: MPNPRPGKPSAPSLALGPSPGASPSWRAAPKASDLLGARGPGGTFQGRDLRGGAHASSSSLNPMPPSQLQLPTLPLVMVAPSGARLGPLPHLQALLQDRPHFMHQLSTVDAHARTPVLQVHPLESPAMISLTPPTTATGVFSLKARPGLPPGINVASLEWVSREPALLCTFPNPSAPRKDSTLSAVPQSSYPLLANGVCKWPGCEKVFEEPEDFLKHCQADHLLDEKGRAQCLLQREMVQSLEQQLVLEKEKLSAMQAHLAGKMALTKASSVASSDKGSCCIVAAGSQGPVVPAWSGPREAPDSLFAVRRHLWGSHGNSTFPEFLHNMDYFKFHNMRPPFTYATLIRWAILEAPEKQRTLNEIYHWFTRMFAFFRNHPATWKNAIRHNLSLHKCFVRVESEKGAVWTVDELEFRKKRSQRPSRCSNPTPGP
B2: Plakophilin-2 (Homo sapiens), Q99959 (parent)
chain: MAAPGAPAEYGYIRTVLGQQILGQLDSSSLALPSEAKLKLAGSSGRGGQTVKSLRIQEQVQQTLARKGRSSVGNGNLHRTSSVPEYVYNLHLVENDFVGGRSPVPKTYDMLKAGTTATYEGRWGRGTAQYSSQKSVEERSLRHPLRRLEISPDSSPERAHYTHSDYQYSQRSQAGHTLHHQESRRAALLVPPRYARSEIVGVSRAGTTSRQRHFDTYHRQYQHGSVSDTVFDSIPANPALLTYPRPGTSRSMGNLLEKENYLTAGLTVGQVRPLVPLQPVTQNRASRSSWHQSSFHSTRTLREAGPSVAVDSSGRRAHLTVGQAAAGGSGNLLTERSTFTDSQLGNADMEMTLERAVSMLEADHMLPSRISAAATFIQHECFQKSEARKRVNQLRGILKLLQLLKVQNEDVQRAVCGALRNLVFEDNDNKLEVAELNGVPRLLQVLKQTRDLETKKQITDHTVNLRSRNGWPGAVAHACNPSTLGGQGGRITRSGVRDQPDQHGLLWNLSSNDKLKNLMITEALLTLTENIIIPFSGWPEGDYPKANGLLDFDIFYNVTGCLRNMSSAGADGRKAMRRCDGLIDSLVHYVRGTIADYQPDDKATENCVCILHNLSYQLEAELPEKYSQNIYIQNRNIQTDNNKSIGCFGSRSRKVKEQYQDVPMPEEKSNPKGVEWLWHSIVIRMYLSLIAKSVRNYTQEASLGALQNLTAGSGPMPTSVAQTVVQKESGLQHTRKMLHVGDPSVKKTAISLLRNLSRNLSLQNEIAKETLPDLVSIIPDTVPSTDLLIETTASACYTLNNIIQNSYQNARDLLNTGGIQKIMAISAGDAYASNKASKAASVLLYSLWAHTELHHAYKKAQFKKTDFVNSRTAKAYHSLKD
partner: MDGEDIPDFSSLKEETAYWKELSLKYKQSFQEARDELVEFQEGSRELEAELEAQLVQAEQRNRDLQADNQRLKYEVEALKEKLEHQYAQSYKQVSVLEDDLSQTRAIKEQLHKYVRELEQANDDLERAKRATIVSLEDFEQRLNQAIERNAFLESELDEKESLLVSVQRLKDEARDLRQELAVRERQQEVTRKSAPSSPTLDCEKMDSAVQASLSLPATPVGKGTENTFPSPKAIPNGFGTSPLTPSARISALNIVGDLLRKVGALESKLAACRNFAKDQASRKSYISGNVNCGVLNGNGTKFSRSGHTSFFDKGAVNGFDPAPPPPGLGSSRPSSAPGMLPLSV
B3: EF-hand domain-containing protein 1 (Homo sapiens), Q5JVL4 (parent)
chain: MVSNPVHGLPFLPGTSFKDSTKTAFHRSQTLSYRNGYAIVRRPTVGIGGDRLQFNQLSQAELDELASKAPVLTYGQPKQAPPADFIPAHVAFDKKVLKFDAYFQEDVPMSTEEQYRIRQVNIYYYLEDDSMSVIEPVVENSGILQGKLIKRQRLAKNDRGDHYHWKDLNRGINITIYGKTFRVVDCDQFTQVFLESQGIELNPPEKMALDPYTELRKQPLRKYVTPSDFDQLKQFLTFDKQVLRFYAIWDDTDSMYGECRTYIIHYYLMDDTVEIREVHERNDGRDPFPLLMNRQRVPKVLVENAKNFPQCVLEISDQEVLEWYTAKDFIVGKSLTILGRTFFIYDCDPFTRRYYKEKFGITDLPRIDVSKREPPPVKQELPPYNGFGLVEDSAQNCFALIPKAPKKDVIKMLVNDNKVLRYLAVLESPIPEDKDRRFVFSYFLATDMISIFEPPVRNSGIIGGKYLGRTKVVKPYSTVDNPVYYGPSDFFIGAVIEVFGHRFIILDTDEYVLKYMESNAAQYSPEALASIQNHVRKREAPAPEAESKQTEKDPGVQELEALIDTIQKQLKDHSCKDNIREAFQIYDKEASGYVDRDMFFKICESLNVPVDDSLVKELIRMCSHGEGKINYYNFVRAFSN
partner: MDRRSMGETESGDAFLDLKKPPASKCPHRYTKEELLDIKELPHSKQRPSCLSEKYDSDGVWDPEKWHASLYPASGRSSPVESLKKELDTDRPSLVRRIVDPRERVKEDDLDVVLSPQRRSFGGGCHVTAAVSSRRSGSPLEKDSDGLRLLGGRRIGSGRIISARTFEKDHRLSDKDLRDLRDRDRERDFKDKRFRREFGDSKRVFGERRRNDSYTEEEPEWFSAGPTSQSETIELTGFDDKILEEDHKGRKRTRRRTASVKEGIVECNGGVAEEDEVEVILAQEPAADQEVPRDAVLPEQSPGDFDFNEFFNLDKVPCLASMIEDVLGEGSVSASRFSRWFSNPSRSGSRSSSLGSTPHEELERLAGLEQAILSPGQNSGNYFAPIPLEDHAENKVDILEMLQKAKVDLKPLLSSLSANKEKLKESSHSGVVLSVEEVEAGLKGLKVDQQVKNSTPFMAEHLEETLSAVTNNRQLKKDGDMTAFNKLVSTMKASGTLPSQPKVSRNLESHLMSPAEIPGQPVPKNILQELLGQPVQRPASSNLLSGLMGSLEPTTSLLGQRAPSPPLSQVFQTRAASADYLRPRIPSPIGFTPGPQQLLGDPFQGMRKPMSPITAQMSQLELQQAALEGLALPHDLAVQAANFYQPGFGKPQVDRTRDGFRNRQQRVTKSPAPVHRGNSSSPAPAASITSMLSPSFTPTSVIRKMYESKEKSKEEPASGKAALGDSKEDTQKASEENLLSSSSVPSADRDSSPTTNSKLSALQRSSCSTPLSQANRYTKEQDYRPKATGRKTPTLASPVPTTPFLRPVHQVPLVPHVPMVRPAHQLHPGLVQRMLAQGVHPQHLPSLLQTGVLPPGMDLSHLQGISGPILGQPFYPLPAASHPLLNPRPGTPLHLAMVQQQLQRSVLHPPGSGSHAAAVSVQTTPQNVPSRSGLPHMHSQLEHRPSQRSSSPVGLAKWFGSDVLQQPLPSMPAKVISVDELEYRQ

Variants of: B1
Conditions: with pr20c_human PRR20C

Variant	effect of a mutation on the interaction
I363V	disrupting interaction

Variants of: B1
Conditions: with rbpms_human RBPMS

Variant	effect of a mutation on the interaction
I363V	disrupting interaction

Variants of: B1
Conditions: with pr20c_human PRR20C
Remark: another data set of the same source

Variant	effect of a mutation on the interaction
Q70H	disrupting interaction

Variants of: B1
Conditions: with rbpms_human RBPMS
Remark: another data set of the same source

Variant	effect of a mutation on the interaction
Q70H	disrupting interaction

Variants of: B2
Conditions: with ndel1_human NDEL1, Q9GZM8

Variant	effect of a mutation on the interaction
S644P	disrupting interaction

Variants of: B2
Conditions: with ndel1_human NDEL1, Q9GZM8
Remark: another data set of the same source

Variant	effect of a mutation on the interaction
S140F	disrupting interaction

Variants of: B3
Conditions: with 4et_human EIF4ENIF1, Q9NRA8

Variant	effect of a mutation on the interaction
A394S	disrupting interaction

Variants of: B3
Conditions: with 4et_human EIF4ENIF1, Q9NRA8
Remark: another data set of the same source

Variant	effect of a mutation on the interaction
T508R	disrupting interaction

Variants of: B3
Conditions: with 4et_human EIF4ENIF1, Q9NRA8
Remark: another data set of the same source

Variant	effect of a mutation on the interaction
R221H	disrupting interaction
